Results as given in a protein production outcome set (Wang et al. 2014).

Test: label from the status in PepcDB records

Sequence	protein production
MNQTRVLLIFSWLTVATLLWMDWSKNKNETLEISASHNLGVDSNLELEHAVPQIHAGAVPLQKDSQLIAAAPKVPVINVTTDVLQLKLDGFSILAADLLRFPQSKDRGAKPIKLLTDDPNYPYSATTGWVSQSNSPVPNLSTFLPEQPDVSYKLANDQNRLVVPFIWTAANGVSIRRTFTFERGRYAILIRDEIRNSGETPWNAYVFRKLSRVPIPNILNRAMTNPDSFSFNGAVWYSEKGGYERRAFKDYMNDGGLNREIGGGWIALLQHHFFTAWIPQKDQASLYLLAQNGSRDIAELRGPAFTVAPGQTTTTEARLWVGPKLVEQITKEHVKGLDRVVDYSRFQLMALIGQGLFWILSHLNSLLHNWGWAIVGLVVLLRIAMYPLSASQYKSAAKMRKFQPRLQQLKERYGEDRQKFQQAMMELYKKEKINPMGGCFPILIQMPIFFALYWVLVESVELRQAPWLGWIQDLTTRDPYFILPLLNIVIMWATQKLTPTPAGMDPIAGKMMQVMPLIFGVMMAFVPSGLALYWVINGGLNLLIQWWMIRQHADFSRKRSRENIK	failed
MIVDFETHFITEACIDYLTQRQEVPKLVPDLNGAYTMCFTPDVSLFHTSALMEELLSLNEQRLAIMDQAGVTIQVLSLTTINGIDSCPGDENKSTALAREVNDQLYSAIQRHPERFKGFASISPYDVKEGVKELERAISQLGFVGWLTHSNFGQDNYLDDKTYWPLLEAAEGLNIPIYLHPNVPIMREFGKYGFALGGSALGFEFDTALCLMRMILGGVFDAFPKLKIMLGHLGETMPFLMERLDHLYRIPDLKAYRPSIQRIPSEVLRQNVYITTSGRFFVPALRYVLEVMGEDRVLFASDYPMESLLDATRFIQDSDLSNQTKQKIFSINAKNLNLILEHHHHHH	failed
MTSRRLEESMGAVQMGLVNMFKGFQSKVLPPLSPKVVTEEEVNRMLTPSEFLKEMSLTTEQRLAKTRLMCRPQIIELLDMGETTHQKFSGIDLDQALFQPFPSEIIFQNYTPCEVYEVPLILRNNDKIPRLVKVVEESSPYFKVISPKDIGHKVAPGVPSIFRILFTPEENKDYAHTLTCVTEREKFIVPIKARGARAILDFPDKLNFSTCPVKYSTQKILLVRNIGNKNAVFHIKTCRPFSIEPAIGTLNVGESMQLEVEFEPQSVGDHSGRLIVCYDTGEKVFVSLYGAAIDMNIRLDKNSLTIEKTYISMANQRTITIHNRSNIIAHFLWKVFATQQEEDREKYRACDDLIKEEKDETDEFFEECITDPLLREHLSVLSRTFANQRRLVQGDSKLFFNNVFTVEPLEGDVWPNSSAEITVYFNPLEAKLYQQTIYCDILGREIRLPLRIKGEGMGPKIHFNFELLDIGKVFTGSAHCYEAILYNKGSIDALFNMTPPTSALGACFVFSPKEGIIEPSGVQAIQISFSSIILGNFEEEFLVNVNGSPEPVKLTIRGCVIGPTFHFNVPALHFGDVSFGFPHTLICSLNNTSLIPMTYKLRIPGDGLGHKSISYCEQHVDYKRPSWTKEEISSMKPKEFTISPDCGTIRPQGFAAIRVTLCSNTVQKYELALVVDVEGIGEEVLALLITARYCSPACSSPESPPSLQ	not failed
MGSSHHHHHHSSGRENLYFQGHMAATAREDGASGQERGQRGCEHYDRGCLLKAPCCDKLYTCRLCHDNNEDHQLDRFKVKEVQCINCEKIQHAQQTCEECSTLFGEYYCDICHLFDKDKKQYHCENCGICRIGPKEDFFHCLKCNLCLAMNLQGRHKCI	not failed
MSTFQQPDPRDRPARLTVGVVGAGRVGPALAASLQLAGHRPVAVSGVSDTSVRRAAAMLPDVPLVTPAQVLERADLVLLTVPDDALPGLVEGLAETGAVRPGQLLVHTSGRYGTKVLDPARSAGALPLALHPAMTFTGTAVDVQRLAGCSFGVTAPDELRLAAEALVIEMGGEPEWIAEENRPLYHAALALGANHLVTLVAESMELLRTAGVEAPDHMLGPLLGAALDNALRSGDGALTGPVARGDAGTVAAHVAELRKHAPGTVPGYLAMARATADRALAHGLLKPELAEDLLGVLANGTEGDAG	failed
MVLQKLPLIGLLLLLTIVASPANADGPVCPPSNKLSRASFPEGFLFGTATAAYQVEGAINETCRGPALWDIYCRRYPERCNNDNGDVAVDFFHRYKEDIQLMKNLNTDAFRMSIAWPRIFPHGRKEKGVSQAGVQFYHDLIDELIKNGITPFVTVFHWDTPQDLEDEYGGFLSERIVKDFREYADFVFQEYGGKVKHWITFNEPWVFSHAGYDVGKKAPGRCSSYVNAKCQDGRSGYEAYLVTHNLLISHAEAVEAYRKCEKCKGGKIGIAHSPAWFEAHDLADSQDGASIDRALDFILGWHLDTTTFGDYPQIMKDIVGHRLPKFTTEQKAKLKASTDFVGLNYYTSVFSNHLEKPDPSKPRWMQDSLITWESKNAQNYAIGSKPLTAALNVYSRGFRSLLKYIKDKYANPEIMIMENGYGEELGASDSVAVGTADHNRKYYLQRHLLSMQEAVCIDKVNVTGYFVWSLLDNFEWQDGYKNRFGLYYVDFKNNLTRYEKESGKYYKDFLSQGVRPSALKKDEL	failed
MYFCGIQNSTRTKGMNKAKSTMKLFGLIGLLILWNCSCVDRHRSHALCEQSLIDSLEVRAQDSLFSNLPYSRSLLRNAMRQAQDSMSYYRLMGLYGKTFFISSDFDSILYYNRPVKEYDKRAAACPRWNDVLSDVYNIEGNVWMQLNQPDSAVAYYEKSYAYRLKGEKGHLLSDICMNLADAHLHRGELAHTASYYRKALFICDSLHLSEHSKFPVYCGLGQTYMDLRDFDLSNHYYELAGQFFDEMTVSEKWVYLNNRGNHYYYKKDYQEALVYMRQAAELIADYPQMVFESNLSKVNLGDLYLLTNRLDSAENNLNEGYRYFSEIKNNSAMHYIETLMIELFLKKGNIARAREMIARTASTGHVDANMLTIRNQYLQHYYEKAGDYRNAYEYLKRDYQLNDSIRSERIRTRVAELDMRYRQDTIVLRKEMQIQRQAGEVRVLKLSMYIWVLVCLLLAAGTVVIIWYMRKKREFLRERFFQQINRVRMENLRSRISPHFTFNVLGREINQFNGSEEVKNNLMELVKYLRRSLELTEKLSVSLQDELDFVQSYIGLESGRVGEDFTASVVVEEGLDAKSIMIPSMIVQIPVENAIKHGLAGKDGEKELTIRISREGKGVRIVICDNGRGYLPQVASSTRGTGTGLKVLYQTIQLLNTKNKNEKIRFNIGNRNDGQTGTQVSVYIPFHFSYDL	failed
MTPEAAYQNLLEFQRETAYLASLGALAAWDQRTMIPKKGHEHRARQMAALARLLHQRMTDPRIGEWLEKVEGSPLVQDPLSDAAVNVREWRQAYERARAIPERLAVELAQAESEAESFWEEARPRDDWRGFLPYLKRVYALTKEKAEVLFALPPAPGDPPYGELYDALLDGYEPGMRARELLPLFAELKEGLKGLLDRILGSGKRPDTSILHRPYPVEAQRRFALELLSACGYDLEAGRLDPTAHPFEIAIGPGDVRITTRYYEDFFNAGIFGTLHEMGHALYEQGLPKEHWGTPRGDAVSLGVHESQSRTWENLVGRSLGFWERFFPRAREVFASLGDVSLEDFHFAVNAVEPSLIRVEADEVTYNLHILVRLELELALFRGELSPEDLPEAWAEKYRDHLGVAPKDYKDGVMQDVHWAGGLFGYFPTYTLGNLYAAQFFQKAEAELGPLEPRFARGEFQPFLDWTRARIHAEGSRFRPRVLVERVTGEAPSARPFLAYLEKKYAALYG	not failed
MSRAANKLTNTAIKNATTEGKAQRKLADGGGLTLVVKPESKVWWLRYRYDGKERTLTLGAYPQTSLKEARAKRDEAKQLLAEGIDPVTHRATHKTKRVEATANTFKAVATEWLKEVHQKAVVEEHYNRNVRRLEQHAFPKLGRRPISEIEPSDILEPLRDIAKTGRRETAKRVKTLIGQVFRYTVSTGRAQRDMTADIRGILPASETKHHAAVVKPDEIADLLKRIDTYWGTPTVCMALELSPLLFLRPGELRTMKWEQIDWDDATWTTERTKNGEPLVVPLARQSIELLSQIQEVNGKWEWVFPGGHSKTKPMSNNAIRTALTRLELHGIMSAHGFRAMARTVLTERLGFRA	failed
MLVGPAPTTDGSAENTLNEKRLVHGSIAFWLGPRAPQTKTHRWTVYVRGARDPLEDLSLYIQKVEFVLHESFADPVRVVKEPPFCLTEHGWGEFEVIIRLFPISDPDKPVEMYHPLRLFPSVGQELTEKPVVSEHLDVLVFSQPAPEVERALHRSDVARMPSDCWGDLMPLFGGDLHQVEEEDLRKVQQARERVRQQIQATRLQYEALTAELARARTHALHRELS	not failed
MKSLVKVSLAALALAFAVSAYAAEKELIVATDTAFVPFEFKQGDKYVGFDIDLWDAIAKKLDLKYTLKPMDFSGIIPALQTKNVDLALAGITITDERKKAVDFSDGYYNSGLLVMVKADNNDIKSEADLQGKVLAVKSGTGSVDYAKANIKTKDLRQFPNIDNAYLELGTGRADAVLHDTPNILYFIKTAGNGQFKAVGESIKAQQYGVAFPQGSDLREKVNAALKSLKEDGTYAEIYKKWFGVEPK	failed
MFSAKKRDKCIGEMSEKQLDLLVIGGGITGAGIALDAQVRGIQTGLVEMNDFASGTSSRSTKLVHGGLRYLKQFEIKLVAEVGKERAIVYENAPHVTTPEWMLLPIFKDGTFGKFSTSLGLKVYDYLADVRKDERRYMLNEKQTLEKEPLLRKENLKGGGIYVEYRTDDARLTLEIMKEAVARGAVALNYMKVESFIYDQGKVVGVVAKDRLTDTTHTIYAKKVVNAAGPWVDTLREKDRSKHGKYLKLSKGVHLVVDQSRFPLRQAVYFDTESDGRMIFAIPREGKTYIGTTDTFYDKDIASPRMTVEDRDYILAAANYMFPSLNLTADDVESSWAGLRPLIHEEGKKASEISRKDEIFFSDSGLISIAGGKLTGYRKMAERTVDAVAQGLNVNEPCTTAAIRLSGGLAEGAQGFPRFLDEASRKGAKLGFDADEVRRLAKLYGSNVDHVLNYAYEGKEEAEHYGLPALLLGQLQYGVEQEMVATPLDFFVRRTGALFFNISLVHQWKEAVLRWMAEEFSWTEEEKTRFQNELETELKMAVDPLFQVEPTTVLEHHHHHH	not failed
MAEWSKAPDSSSGLRKRAWIRPWQREHMTIESVDHETRSMTQRFTVPEFFEGYKMITSTTKVNDSAIGLYSLVDISVEYDKTGPEIKDLDQVQFLVDYINELVLRTGGQLLRRLK	failed
KHSSTQQRLSRMLHEDGFVMHYQLLQSVVEKDVISFEALLRYQDREGNLCPPTFISDFQLLNMMPTLDKLVIDKVLTDMQKMDLNEDRRVAINISVASIEEHGFAEHVIDRLKFFSIPPHWLEIEITEEAILSDNHNLLSTLEILKSHGIKIAMDDFGTGYASFPHLLKYPFDKIKLDRSLLLDASTTKGKQLYQLIAQMGDVANCEVVAEGVETEDEFKFVAECGVDKVQGFLIARP	failed
MNAARYAEHLAIFVEVARGGSFSAVARRHGATPSTITRKIDMLEEFVGTNLLVRSTRALLLTEAGETLFARGVSVLEALTDIHNEVIALSDSMYGTLRISCLPTFGKLHVLPWLADLQQRHPSMRIDLDLTERLTNPSVERLDAAIRIGKLKDSSLFAKQIGTQRWVICASPDYLRQRGHPSDLEDLRRLRLIDKLHDPHSMCWRRLVEKGHIDQIEAAFRCDDFEAMRQAALCGLGAAFLPDWVIAQDLAAGALIRLFDDPEGREDGIHLVRALPKMSAKLEVFHQALSNHLGQVRIGGCLPASR	failed
ITARRRGELRRDALLKMGDQLRSLTTIQDMTGIASEIVGRALGAVRAGFGRVDPGEESVIIENDWSAAGYASLAGWHSLSDHPSFETANATKQPVVVADVAAAPPDNLSSQAKDDPGIGSLAVIPIENHDGSTALFFVHVAEPRDWSDDDLAFLRNVGDRLAAGVGRLDAEALQHTLNLELSHRMKNTLAMVMAIARQTLRSIP	failed
QEQRMSHHYATIEVSQQLRQLLGDQLVILLRETPDGQALERSQNDFRRVLEQGRANTVDSAEQAALDGVRDAYLQLQAHTPALLEAPMADNDGFSEAFNGLRLRLQDLQQLALAGISEAETSARHRA	not failed
MQDELVILSSIASIMVAIIVLILFYIEKIRTYVGVFFVYFSLTMMIAMFVGASIYLLYPSRVSLAIAFGINTFIMIPLIAYFLLKIAKLANTPFRGERTHVVIFSILLVLNEILMGTTFGIAQFGFSRFSNLYYSLYFSINSYWFFYPMMAEMLALYLLHYLKGSINRELFPLIGLATFPPTAFDYQEWFYSALIFSLAFSILGSILSKRLWRYVYLMLILSELILLINAIPYDIAIAISMILYYYQSLLPLRR	failed
